Measured values published in article PMC3846777, “Characteristics and Function of Sulfur Dioxygenase in Echiuran Worm Urechis unicinctus” (PLoS ONE, 2013).

Experiments:
Test in all cases: oxygen consumption, Clark-type oxygen electrode (Oxytherm)
Format in all cases: biochemical, Urechis unicinctus
Settings in all cases: 0.1 M potassium phosphate pH 7.4, 25°C, O2 co-substrate, GSS^− prepared from GSH and acetonic sulfur
[1] = substrate: N[C@@H](CCC(=O)N[C@@H](CSS)C(=O)NCC(=O)O)C(=O)O
Description: oxygen consumption, Clark-type oxygen electrode (Oxytherm) on Del-1

[2] = substrate: N[C@@H](CCC(=O)N[C@@H](CSS)C(=O)NCC(=O)O)C(=O)O; remark: listed apart in the source
Description: oxygen consumption, Clark-type oxygen electrode (Oxytherm) on Del-3

[3] = substrate: N[C@@H](CCC(=O)N[C@@H](CSS)C(=O)NCC(=O)O)C(=O)O; remark: listed apart in the source
Description: oxygen consumption, Clark-type oxygen electrode (Oxytherm) on Del-2

[4] = substrate: N[C@@H](CCC(=O)N[C@@H](CSS)C(=O)NCC(=O)O)C(=O)O; remark: listed apart in the source
Description: oxygen consumption, Clark-type oxygen electrode (Oxytherm) on Del-4

[5] = substrate: N[C@@H](CCC(=O)N[C@@H](CSS)C(=O)NCC(=O)O)C(=O)O; remark: listed apart in the source
[6] = substrate: N[C@@H](CCC(=O)N[C@@H](CSS)C(=O)NCC(=O)O)C(=O)O; remark: listed apart in the source
Description: oxygen consumption, Clark-type oxygen electrode (Oxytherm) on U. unicinctus SDO (complete ORF, wild type)

B1: Del-1 (Urechis unicinctus) (protein)
chain: MLSSVCGSLRRTLCNGSVLASKHPFLGRSNALKLETKPVCTRVMYRSYSANMHGQEVVFRQLFDNTSFTYTYLLGDAASKEAVLIDPVIELVDRDVRIVKELGLNL
notes: C-terminally truncated SDO, 318 bp from the start codon (106 residues, end calculated from printed size), lacks all metal sites
Question: Which Km [1] does the source give for B1 here?
Answer: Its Km is 218.9 ± 33.5 µM.

Question: And the Vmax [1]?
Answer: The Vmax was 0.33 ± 0.014 µmol/min/mg.

Question: And the kcat [1]?
Answer: The kcat was 0.09 s⁻¹.

B2: Del-3 (Urechis unicinctus) (protein)
chain: MLSSVCGSLRRTLCNGSVLASKHPFLGRSNALKLETKPVCTRVMYRSYSANMHGQEVVFRQLFDNTSFTYTYLLGDAASKEAVLIDPVIELVDRDVRIVKELGLNLKYAVNTHVHADHVTGTGEIKKRIPTCKSVIAECSQAKADVFINEGDGIEFGQFKLECRSTPGHTDGCFTYVWHEKGMAFTGDALLIRGCGRTDFQQGSS
notes: C-terminally truncated SDO, 615 bp from the start codon (205 residues, end calculated from printed size)
Question: For B2, which Km [2] is on record?
Answer: Its Km is 104.6 ± 16.7 µM.

Question: And the Vmax [2]?
Answer: The Vmax was 0.98 ± 0.065 µmol/min/mg.

Question: What about the kcat [2] of the same protein?
Answer: Its kcat is 0.45 s⁻¹.

B3: Del-2 (Urechis unicinctus) (protein)
chain: MLSSVCGSLRRTLCNGSVLASKHPFLGRSNALKLETKPVCTRVMYRSYSANMHGQEVVFRQLFDNTSFTYTYLLGDAASKEAVLIDPVIELVDRDVRIVKELGLNLKYAVNTHVHADHVTGTGEIKKRIPTCKSVIAECSQAKADVFINEGDGIEFGQF
notes: C-terminally truncated SDO, 477 bp from the start codon (159 residues, end calculated from printed size)
Question: B3 was tested. Which Km [3] did it give?
Answer: The Km was 137.0 ± 17.2 µM.

Question: What about the Vmax [3] of the same protein?
Answer: The Vmax was 0.42 ± 0.024 µmol/min/mg.

Question: And the kcat [3]?
Answer: Its kcat is 0.16 s⁻¹.

B4: Del-4 (Urechis unicinctus) (protein)
chain: MLSSVCGSLRRTLCNGSVLASKHPFLGRSNALKLETKPVCTRVMYRSYSANMHGQEVVFRQLFDNTSFTYTYLLGDAASKEAVLIDPVIELVDRDVRIVKELGLNLKYAVNTHVHADHVTGTGEIKKRIPTCKSVIAECSQAKADVFINEGDGIEFGQFKLECRSTPGHTDGCFTYVWHEKGMAFTGDALLIRGCGRTDFQQGSSEALYKSVHGKILSLPEQFILYPAHDYTGQTSTTVREEKNHNPRLTKPI
notes: C-terminally truncated SDO, 759 bp from the start codon
Question: B4 was tested. Which Km [4] did it give?
Answer: The Km was 83.0 ± 10.9 µM.

Question: And the Vmax [4]?
Answer: Its Vmax is 1.23 ± 0.063 µmol/min/mg.

Question: What about the kcat [4] of the same protein?
Answer: Its kcat is 0.68 s⁻¹.

B5: U. unicinctus SDO (complete ORF, wild type) (Urechis unicinctus; D117E/H118A) (protein)
chain: MLSSVCGSLRRTLCNGSVLASKHPFLGRSNALKLETKPVCTRVMYRSYSANMHGQEVVFRQLFDNTSFTYTYLLGDAASKEAVLIDPVIELVDRDVRIVKELGLNLKYAVNTHVHAEAVTGTGEIKKRIPTCKSVIAECSQAKADVFINEGDGIEFGQFKLECRSTPGHTDGCFTYVWHEKGMAFTGDALLIRGCGRTDFQQGSSEALYKSVHGKILSLPEQFILYPAHDYTGQTSTTVREEKNHNPRLTKPIDVFIRIMSELNLPYPKQLDRALPANMVCGIFDTESPPSKS
Question: For B5, which Km [5] is on record?
Answer: The Km was 174.4 ± 16.8 µM.

B6: U. unicinctus SDO (complete ORF, wild type) (Urechis unicinctus) (protein)
chain: MLSSVCGSLRRTLCNGSVLASKHPFLGRSNALKLETKPVCTRVMYRSYSANMHGQEVVFRQLFDNTSFTYTYLLGDAASKEAVLIDPVIELVDRDVRIVKELGLNLKYAVNTHVHADHVTGTGEIKKRIPTCKSVIAECSQAKADVFINEGDGIEFGQFKLECRSTPGHTDGCFTYVWHEKGMAFTGDALLIRGCGRTDFQQGSSEALYKSVHGKILSLPEQFILYPAHDYTGQTSTTVREEKNHNPRLTKPIDVFIRIMSELNLPYPKQLDRALPANMVCGIFDTESPPSKS
Question: Which results are given for B6?
Answer: Km [6]: 82.5 ± 9.9 µM; Vmax [6]: 1.74 ± 0.081 µmol/min/mg; kcat [6]: 1.09 s⁻¹
